Measurements reported in patent publication US20250382363A1 (NUMAB THERAPEUTICS, published 2025).

B1: PRO1922 (scFv 54-21-H03-sc01) (scFv)
scFv: DIQMTQSPSSLSASVGDRVTITCQASESIYSSLAWYQQKPGKAPKLLIYLASTLASGVPSRFSGSGSGTDFTLTISSLQPEDFATYYCQSTDYTTSTHRNSFGTGTKVTVLGGGGGSGGGGSGGGGSGGGGSEVQLVESGGGLVQPGGSLRLSCAASGFSFSTTYYMCWVRQAPGKGLEWIGCTNTASSVRTYYATWAKGRFTISRDNSKNTVYLQMNSLRAEDTAVYYCARDMGFADYALNLWGQGTLVTVSS
notes: also called PRO1922 wt; a-MSLN wt
B2: PRO2931 (scFv 54-21-H03-sc01_(L144K, S148L)) (scFv)
scFv: DIQMTQSPSSLSASVGDRVTITCQASESIYSSLAWYQQKPGKAPKLLIYLASTLASGVPSRFSGSGSGTDFTLTISSLQPEDFATYYCQSTDYTTSTHRNSFGTGTKVTVLGGGGGSGGGGSGGGGSGGGGSEVQLVESGGGLVQPGGSLRLSCAASGFSFSTTYYMCWVRQAPGKGLEWIGCTNTASSVRTYYATWAKGRFTISRDNSKNTVYLQMNSLRAEDTAVYYCARDMGFADYALNLWGQGTKVTVLS
notes: PRO1922 variant; VH substitutions, AHo numbering; also called PRO1922 L144K-S148L
B3: PRO2918 (scFv 54-21-H03-sc01_(L12R, V103T, L144Q)) (scFv)
scFv: DIQMTQSPSSLSASVGDRVTITCQASESIYSSLAWYQQKPGKAPKLLIYLASTLASGVPSRFSGSGSGTDFTLTISSLQPEDFATYYCQSTDYTTSTHRNSFGTGTKVTVLGGGGGSGGGGSGGGGSGGGGSEVQLVESGGGRVQPGGSLRLSCAASGFSFSTTYYMCWVRQAPGKGLEWIGCTNTASSVRTYYATWAKGRFTISRDNSKNTVYLQMNSLRAEDTATYYCARDMGFADYALNLWGQGTQVTVSS
notes: VH substitutions, AHo numbering; also called PRO1922-L12R-V103T-L144Q
B4: PRO2930 (scFv 54-21-H03-sc01_(L144K, T146E, S148K)) (scFv)
scFv: DIQMTQSPSSLSASVGDRVTITCQASESIYSSLAWYQQKPGKAPKLLIYLASTLASGVPSRFSGSGSGTDFTLTISSLQPEDFATYYCQSTDYTTSTHRNSFGTGTKVTVLGGGGGSGGGGSGGGGSGGGGSEVQLVESGGGLVQPGGSLRLSCAASGFSFSTTYYMCWVRQAPGKGLEWIGCTNTASSVRTYYATWAKGRFTISRDNSKNTVYLQMNSLRAEDTAVYYCARDMGFADYALNLWGQGTKVEVKS
notes: PRO1922 variant; VH substitutions, AHo numbering; also called PRO1922 L144K-T146E-S148K
B5: PRO3313 (scFv 37-20-B03-sc09.1_(T101S, T146R)) (scFv)
scFv: DIQMTQSPASLSASVGDRVTITCQASQSIGTYLAWYQQKPGKPPKLLIYRAFILASGVPSRFSGSGSGTDFTLTISSLQPEDFATYYCQSNFYSDSTTIGPNAFGTGTKVTVLGGGGGSGGGGSGGGGSGGGGSEVQLVESGGGLVQPGGSLRLSCAASGFSFNSDYWIYWVRQAPGKGLEWIASIYGGSSGNTQYASWAQGRFTISRDNSKNTVYLQMNSLRAEDSAVYFCARGYVDYGGATDLWGQGTLVRVSS
notes: PRO2230 variant; VH substitutions, AHo numbering; also called PRO2230 T101S-T146R
B6: PRO3339 (scFv 37-20-B03-sc09.1_(T101N, T146Q)) (scFv)
scFv: DIQMTQSPASLSASVGDRVTITCQASQSIGTYLAWYQQKPGKPPKLLIYRAFILASGVPSRFSGSGSGTDFTLTISSLQPEDFATYYCQSNFYSDSTTIGPNAFGTGTKVTVLGGGGGSGGGGSGGGGSGGGGSEVQLVESGGGLVQPGGSLRLSCAASGFSFNSDYWIYWVRQAPGKGLEWIASIYGGSSGNTQYASWAQGRFTISRDNSKNTVYLQMNSLRAEDNAVYFCARGYVDYGGATDLWGQGTLVQVSS
notes: PRO2230 variant; VH substitutions, AHo numbering; also called PRO2230 T101N-T146Q
B7: PRO3340 (scFv 37-20-B03-sc09.1_(T101S, T146K)) (scFv)
scFv: DIQMTQSPASLSASVGDRVTITCQASQSIGTYLAWYQQKPGKPPKLLIYRAFILASGVPSRFSGSGSGTDFTLTISSLQPEDFATYYCQSNFYSDSTTIGPNAFGTGTKVTVLGGGGGSGGGGSGGGGSGGGGSEVQLVESGGGLVQPGGSLRLSCAASGFSFNSDYWIYWVRQAPGKGLEWIASIYGGSSGNTQYASWAQGRFTISRDNSKNTVYLQMNSLRAEDSAVYFCARGYVDYGGATDLWGQGTLVKVSS
notes: PRO2230 variant; VH substitutions, AHo numbering; also called PRO2230 T101S-T146K
B8: PRO3341 (scFv 37-20-B03-sc09.1_(T101S, T146S)) (scFv)
scFv: DIQMTQSPASLSASVGDRVTITCQASQSIGTYLAWYQQKPGKPPKLLIYRAFILASGVPSRFSGSGSGTDFTLTISSLQPEDFATYYCQSNFYSDSTTIGPNAFGTGTKVTVLGGGGGSGGGGSGGGGSGGGGSEVQLVESGGGLVQPGGSLRLSCAASGFSFNSDYWIYWVRQAPGKGLEWIASIYGGSSGNTQYASWAQGRFTISRDNSKNTVYLQMNSLRAEDSAVYFCARGYVDYGGATDLWGQGTLVSVSS
notes: PRO2230 variant; VH substitutions, AHo numbering; also called PRO2230 T101S-T146S
B9: PRO3314 (scFv 37-20-B03-sc09.1_(T101Q, T146Q)) (scFv)
scFv: DIQMTQSPASLSASVGDRVTITCQASQSIGTYLAWYQQKPGKPPKLLIYRAFILASGVPSRFSGSGSGTDFTLTISSLQPEDFATYYCQSNFYSDSTTIGPNAFGTGTKVTVLGGGGGSGGGGSGGGGSGGGGSEVQLVESGGGLVQPGGSLRLSCAASGFSFNSDYWIYWVRQAPGKGLEWIASIYGGSSGNTQYASWAQGRFTISRDNSKNTVYLQMNSLRAEDQAVYFCARGYVDYGGATDLWGQGTLVQVSS
notes: PRO2230 variant; VH substitutions, AHo numbering; also called PRO2230 T101Q-T146Q
B10: PRO3343 (scFv 37-20-B03-sc09.1_(T101R, T146E)) (scFv)
scFv: DIQMTQSPASLSASVGDRVTITCQASQSIGTYLAWYQQKPGKPPKLLIYRAFILASGVPSRFSGSGSGTDFTLTISSLQPEDFATYYCQSNFYSDSTTIGPNAFGTGTKVTVLGGGGGSGGGGSGGGGSGGGGSEVQLVESGGGLVQPGGSLRLSCAASGFSFNSDYWIYWVRQAPGKGLEWIASIYGGSSGNTQYASWAQGRFTISRDNSKNTVYLQMNSLRAEDRAVYFCARGYVDYGGATDLWGQGTLVEVSS
notes: PRO2230 variant; VH substitutions, AHo numbering; also called PRO2230 T101R-T146E
B11: PRO3338 (scFv 37-20-B03-sc09.1_(T101K, T146Q)) (scFv)
scFv: DIQMTQSPASLSASVGDRVTITCQASQSIGTYLAWYQQKPGKPPKLLIYRAFILASGVPSRFSGSGSGTDFTLTISSLQPEDFATYYCQSNFYSDSTTIGPNAFGTGTKVTVLGGGGGSGGGGSGGGGSGGGGSEVQLVESGGGLVQPGGSLRLSCAASGFSFNSDYWIYWVRQAPGKGLEWIASIYGGSSGNTQYASWAQGRFTISRDNSKNTVYLQMNSLRAEDKAVYFCARGYVDYGGATDLWGQGTLVQVSS
notes: PRO2230 variant; VH substitutions, AHo numbering; also called PRO2230 T101K-T146Q
B12: PRO3317 (scFv 37-20-B03-sc09.1_(T101Q)) (scFv)
scFv: DIQMTQSPASLSASVGDRVTITCQASQSIGTYLAWYQQKPGKPPKLLIYRAFILASGVPSRFSGSGSGTDFTLTISSLQPEDFATYYCQSNFYSDSTTIGPNAFGTGTKVTVLGGGGGSGGGGSGGGGSGGGGSEVQLVESGGGLVQPGGSLRLSCAASGFSFNSDYWIYWVRQAPGKGLEWIASIYGGSSGNTQYASWAQGRFTISRDNSKNTVYLQMNSLRAEDQAVYFCARGYVDYGGATDLWGQGTLVTVSS
notes: PRO2230 variant; VH substitution, AHo numbering; also called PRO2230 T101Q
B13: PRO3342 (scFv 37-20-B03-sc09.1_(T101K, T146D)) (scFv)
scFv: DIQMTQSPASLSASVGDRVTITCQASQSIGTYLAWYQQKPGKPPKLLIYRAFILASGVPSRFSGSGSGTDFTLTISSLQPEDFATYYCQSNFYSDSTTIGPNAFGTGTKVTVLGGGGGSGGGGSGGGGSGGGGSEVQLVESGGGLVQPGGSLRLSCAASGFSFNSDYWIYWVRQAPGKGLEWIASIYGGSSGNTQYASWAQGRFTISRDNSKNTVYLQMNSLRAEDKAVYFCARGYVDYGGATDLWGQGTLVDVSS
notes: PRO2230 variant; VH substitutions, AHo numbering; also called PRO2230 T101K-T146D

What was measured:
[1] = target: T1, human a-Mesothelin (Acro Biosystems; MSN_H5223) (human, UniProt Q13421 296-580, limits assumed); experiment: SPR, mesothelin immobilised, scFv analyte, 1:1 fit
T1 construct: Bought protein immobilised on the SPR chip; Printed as 'a-Mesothelin' but used as the antigen for the anti-MSLN scFvs; also called Human MSLN; MSLN
Description: (§1) The mutation variants were then injected at concentrations of 10 nM, 2 nM and 0.4 nM over the ligand-immobilized and reference spots. The wild type variants were used as a control, while an empty spot was used as reference.
(§2) After each cycle with analyte, the surface was regenerated with a 3M MgCl₂ solution, thereby allowing the next analyte cycle to have only free ligand available. Binding affinity KD was globally calculated by the Bruker SPR software based on the binding association (kₒₙ) and dissociation (Koff) rate, by fitting a 1:1 Langmuir model to the curves obtained by the cycles with the three different concentrations of the analyte.

[2] = target: pre-existing anti-drug antibodies (ADA) present in human sera; experiment: pre-existing ADA ELISA, scFv coated, human sera unspiked vs spiked
[3] = target: T2, human a-PD-L1 Fc (Sino Biological, 10084-H02H, LC11NO2402) (human, UniProt Q9NZQ7 19-239); experiment: SPR, PD-L1 Fc immobilised, scFv analyte, 1:1 fit
T2 construct: Bought Fc fusion immobilised on the SPR chip; Printed as 'a-PD-L1 Fc' but used as the antigen (ligand) for the anti-PD-L1 scFvs; also called Human PD-L1; not shown: Fc part
Description: as §1, §2

T1 sequence (Q13421 other isoform, or with tags, fused parts or gaps limits assumed): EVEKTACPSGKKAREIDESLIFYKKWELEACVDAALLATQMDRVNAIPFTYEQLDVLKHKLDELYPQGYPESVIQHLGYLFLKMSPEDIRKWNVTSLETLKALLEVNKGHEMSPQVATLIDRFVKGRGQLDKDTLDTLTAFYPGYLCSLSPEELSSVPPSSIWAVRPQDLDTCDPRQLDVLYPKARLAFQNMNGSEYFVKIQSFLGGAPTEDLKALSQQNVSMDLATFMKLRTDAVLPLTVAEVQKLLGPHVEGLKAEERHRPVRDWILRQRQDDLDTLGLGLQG
T2 sequence (Q9NZQ7 19-239 limits assumed): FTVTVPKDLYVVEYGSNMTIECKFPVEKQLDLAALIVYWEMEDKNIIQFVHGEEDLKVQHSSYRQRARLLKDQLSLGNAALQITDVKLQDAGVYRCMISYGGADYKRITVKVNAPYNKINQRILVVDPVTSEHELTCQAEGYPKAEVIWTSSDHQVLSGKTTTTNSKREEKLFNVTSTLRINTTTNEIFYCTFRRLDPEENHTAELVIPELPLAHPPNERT

Binder	Kd [1] [nM]	n-fold to wt [1] [fold]	Mean No of serum samples >30% inhibition (30% CCP) with SCP (serum samples) [2]	No of serum samples >30% inhibition (30% CCP) without SCP (serum samples) [2]	Kd [3] [nM]	n-fold to wt [3] [fold]
B1	1.8	1	8	16	–	–
B2	1.4	0.8	1	6	–	–
B3	2.4	1.3	3	5	–	–
B4	1.3	0.7	0	0	–	–
B5	–	–	1	5	0.014	0.3
B6	–	–	0	0	0.035	0.7
B7	–	–	0	2	0.056	1.1
B8	–	–	0	4	0.051	1
B9	–	–	1	4	0.027	0.6
B10	–	–	0	0	0.029	0.6
B11	–	–	0	0	0.021	0.4
B12	–	–	1	7	0.042	0.9
B13	–	–	0	1	0.038	0.8
